The values that follow come from PMC10673952.

The target of assay [1] is T1, FimA-FimAt (the two subunits of the ternary FimCAA complex) (E. coli) (UniProt P04128).
T1 sequence (P04128 24-182, looked up): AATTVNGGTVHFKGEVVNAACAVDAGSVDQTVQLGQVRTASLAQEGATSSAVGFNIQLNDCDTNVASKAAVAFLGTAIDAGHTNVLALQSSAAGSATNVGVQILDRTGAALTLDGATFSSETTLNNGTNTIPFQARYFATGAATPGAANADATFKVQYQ
The experiment in a line: chaperone exchange kinetics followed by analytical cation exchange chromatography; 4 μM complex incubated with a 9-fold molar excess (36 μM) of the differently tagged FimC (untagged FimC against FimCHis complexes, FimCHis against FimCA and FimCAA); 20 mM MES-NaOH pH 6.0, 37 °C; single-exponential fit.

Assay [2] addresses Fluorescein-labeled FimDN (E. coli). Kind of assay: stopped-flow fluorescence kinetics; fluorescein-labeled FimDN (0.4 μM) mixed with different concentrations of FimCI; 23 °C, 20 mM Tris-HCl pH 8.0; traces fitted globally to second-order binding and first-order dissociation.

FimC-FimI complex (FimCI), sequence (P31697 37-241): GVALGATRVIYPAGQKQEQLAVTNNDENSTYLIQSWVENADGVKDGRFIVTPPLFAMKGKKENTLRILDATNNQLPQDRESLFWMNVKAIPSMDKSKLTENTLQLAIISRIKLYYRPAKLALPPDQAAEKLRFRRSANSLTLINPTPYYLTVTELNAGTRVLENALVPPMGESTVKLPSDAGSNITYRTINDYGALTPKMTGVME
FimC-FimI complex (FimCI), sequence (P39264 20-179): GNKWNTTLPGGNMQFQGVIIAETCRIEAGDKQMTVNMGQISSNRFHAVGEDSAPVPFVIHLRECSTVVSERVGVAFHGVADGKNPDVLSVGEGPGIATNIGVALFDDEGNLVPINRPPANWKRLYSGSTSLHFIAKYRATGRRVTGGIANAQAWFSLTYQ
Fluorescein-labeled FimDN (E. coli), sequence (P30130 46-170 limits assumed): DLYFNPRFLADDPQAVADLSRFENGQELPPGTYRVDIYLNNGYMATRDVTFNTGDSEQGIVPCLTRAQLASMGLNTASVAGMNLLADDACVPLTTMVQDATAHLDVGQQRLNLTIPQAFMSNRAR
FimC, sequence (P31697 37-241): as the sequence (P31697 37-241) above

On to “FimC (from UniProt P31697 37-241) (natural protein)”, for which, in assay [1], the dissociation half-life is 17.7 min.
For the substance “FimC-FimI complex (FimCI) (from UniProt P31697 37-241; P39264 20-179)”, in assay [2], the koff (usually a measure of how fast the partners let go of each other) was 94 s⁻¹ and the kon (commonly the rate constant with which the complex forms) came out at 1.45e+08 M⁻¹ s⁻¹.
